According to the supplement of paper PMC9170038:

System: K4 kissing-loop RNA reporter
Assay: apparent KD of K4 kissing-loop reporter; higher = weaker reporter binding
Details: Eterna round: R107; input ligand: theophylline 20 uM
Protocol: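 RNA-MaP round R107: designed RNA switches with theophylline, tryptophan, arginine or FMN aptamers are transcribed on-chip within common flanks. They are titrated with a labelled K4 kissing-loop RNA reporter in RNA-MaP buffer (100 mM Tris pH 7.5, 80 mM KCl, 4 mM MgCl2), without ligand or with the indicated ligand. Median apparent KD per design.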
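Note: bound reporter read as fluorescence of individual clusters on recovered sequencing chips by microscopy, with normalized cluster intensities fitted with a binding model.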

Sequence | apparent KD of K4 kissing-loop reporter [µM]
AAGUGUUCUAGUGAUACCAGACAAUUUUAUUUUUUCUUUUUUGCUAAGUGAUGUUUAGCAGUCCCUUGGCAGCACUAUUUCACUA [JR_SSTheophyB_Sub018] | 0.147
GUCGAUGGUAACCGCUGACGUCGAUGAUGGGAGGAUAUGUUAGUUGACAGAAGGCCCAGUGAUGUUGGGCGUUUGUCUUGGUAUA [Ustecexe] | 0.134
UAAGAAUAAGUAGCAGUGAUGUUGCUACUACGAGGACCGGUACGGCCGCCACUCGAGCCGUACCAACUGCUACAAGGUACGAAUA [(H1)-(H2)-(Trp1)-(Trp2)-(T)'-(H)'-(T)''] | 0.243
AGUGUCAGUGAUGUUGAGAAGAUGGGUACUAAGGAUAUGCGGCGAUGCAGAAGGUAGAAUGAUUAGUUCGCAUGUUAUGAGGGAU [theeternabot_exclusion_KL_FMN_A_46] | 0.487
AGUGAAGUUAGUGAUGUGUGAGUUUGGGAAGGAGCGCCGAGGAAGGCAGGUAGGUCGCCCAGUGAUGUUGGUGUAAAGAUGAGAG [whbob_Ex_Arginine_A_2t122] | 0.254
AUAUACCAGUGAUGUUGGUAUACUAUCGAUACCAGUAGAUACCAAUACCCUUGGCAGCGAUAAGACCGUACUGUAGCCAGUACUU [Theo A SS t4] | 0.34
ACGUCCGGAUUAAUCGUGGGCAUGGUGGAUACCAGUUCUUUAAUGAACCCUUGGCAGCCACAUGAGUGAUGUUCAUGUGCGAUGA [KL-XTheo-A9 #analogue] | 0.187
AAGUGUCAUUAGACACACUGAUGUAUAAACUAGGAUAUGCUGAUAAGCAGAAGGAGUGAUGUUCCUUUCAUCAUCAGAAUUAAAU [KL-XFMN-A2] | 0.127
UGACUGGACUGAAGGAGCGCUGAACUCCUAGUGAUGUUAGGAUAACGAGACAAAGUCUCGAAGCAGGUAGGUCGCAGUCUAGUCU | 0.123
AUGCUUUUAAUAACACUAUAUACAACUGAAGGAGCGACAAUAAAGUCAGGUAGGUCGCAGAAUAAAUGAGUGAUGUUCAUUUUUA [JR_ExcArginiA_Sub009] | 0.119
UUAGUCUAGAGAGGAUAUCAGUGAUGUUGAUAUCAAGAUCAUAGAUAGAAUUCUAUCUAUGAUCAAUGAGAAGGCUCUAGACAUU [AK1 Exc FMN B] | 0.155

Same assay, conditions: Eterna round: R107; input ligand: tryptophan 2.4 mM

Sequence | apparent KD of K4 kissing-loop reporter [µM]
CCUGCAGCUGUAACCGAGUGAUGAUACGGACGAGGACCGGUACGGCCGCCACUCGCCAGUGAUGUUGGUGUGGGAGGACGUAACU [KL-XTryp-A23] | 0.221
AAGUGAUGUUGUAGUGAUGUUGUGAUGUUGCAGGAUAUAUAGUGAUGUAGAAGGGUAAGUACUGAUGUUGUUAGUAAGUGAUGUU [tvvbmullin] | 0.0778
GCCUGGGCACGAAGGAGCGCCGUGACAGGUUACUGCCUUGGGCAGUGAUGUUGCUCAAUCUGGCAGGUAGGUCGCGUGCCCAGGC | 0.168
AGACUACCACACUGUCAAUAGACAGUGGACUAGGAUAUGCUGAUAAGCAGAAGGAGUGAUGUUCCUGGGUAGUCAAUAAAAUAAU [FmnAX 13 G28+G67] | 0.425
GGACGCCGGUCGGCCGCCACUCACAGCAGUGAUGUUGCUGAGCUUGUAGCGGAGUGAUGUUCCGAGAGGACCGGGACUGCAGUUU [Same State Tryptophan B GF 10] | 0.532
GGUUCCUCAGUGAUGUUGAGGUGACCUCGGCAGGAUAUAGGCAUUACUAGAAGGGCCAAAAGAACCCUGUCCAGCGACACAGGGU [Inatinar] | 0.265
GAUACACUUUCAGGUAUCCAGUGACUGGAUACCAGCAUGGAAACAUGCCCUUGGCAGCCAGAACUGGAAGUGAUGUUUCCAGUAA [Design7] | 0.199
GGUAGCAUGGCGGCCGCCACUUAGACCCUCCAGGAUGAGGGAAAAUAGCAGUGAUGUUGCUAGGUAAGGACCGGGCCAUGCUACC | 0.119
CAGACCACAGAGUGAUGUUCUGUGUCCGAAGGAGCGCGCGAGAGCGCAGGUAGGUCGCGGAUACAGUUGACGUACCUUCAAGACA [Arg A Ex t3] | 0.219
AAAUCGUUCAGAAGGAGCGUGGAUUAUUCUUAUAUAUUUAUUACGAGUGAUGUUCGUAAUUCACAGGUAGGUCGCUGAUCGAUAA [JR_ExcArginiB_Sub004] | 0.108
AAUAAAAUCACGGCCGCCACUGAAUAAUUGUUAAGUAGUGAUGUUACUUUACUUUUCUUAGUUAACAGGACCGGGUGAAUAUUUA [#18 K4 Tryptophan B Exclusion] | 0.19
UUGUUUUACUGAAGGAGCGGCAAUUGAUACGUAGAUAUAGUGAUGUUAUAUAAGAUAGAGAGCCAGGUAGGUCGCAGAGGUGUUU [ExArgB.S] | 0.168
UGUGAACAAAAGUAGAGUGGACCACUAUAGCGAGGACCGGUACGGCCGCCACUCGUAUAUGAAUUCAGUGAUGUUGAAAAGAGCU [whbob_EX_Tryp_A_t10] | 0.165
CAUAUUUCGGCGGCCGCCACUGACCAUAGCCUUCGAUGGCCAGUGAUGUUGGCCUCUGGCUCUAACAGGACCGGGCCGAAUUGUG [Uslaxe] | 0.116
AGACUACCACACUGUCAAUAGACAGUGAACUAGGAUAUGCUGAUAAGCAGAAGGAGUGAUGUUCCUAAUAAAAGGUAGUCAUAAU [FmnAX 16 #SwitchBubble #StaticStem #K4Early] | 0.36
ACACUUUACGUAGGAUAUGCGACGAGUGAUGUUCGUCAGGCGGCUUUAGCUUAAGCAAGCCGCCUAGCAGAAGGACGGGCAGUGU [Bigemalaza] | 0.173
GUCCCAGUGAUGUUGGUAGGCGAGCGGGAUACCAGCCAAGACUCAGGCCCUUGGCAGCCCACAUAUCCCACGUAGGGAGUAGCUC [Same State - Theophylline A (Freestyle 18)] | 0.209
AAUGCAUAGUGAAGGAGCGCGAUAAGCAGUGAUGUUGCUUAGUUAUUAGUGUUUAUUUAUACGCAGGUAGGUCGCACUUUGCAUA [JR_ExcArginiB_Sub018] | 0.107
UGAUAGCCAGUGAUGUUGGCAUGUACUGAAGGAGCGCGUGGAAACGCAGGUAGGUCGCAGUUCCUUGCCAAUUGAUCGAAAGAUC [#09 K4 Arginine A Exclusion] | 0.239
CUCAAGUGAGGAUUUCGACAUCAAGAUGUGAAGGAUAUGUUACCAAACAGAAGGUCACGAUGUCAUCUAUGAGUGAUGUUCAGGA [theeternabot_sameState_KL_FMN_A_31] | 0.181
AAGUGAUGUUGUAGUGAUGUUGUGAUGUUGCAGGAUAUAUAGUGAUGUAGAAGGGUAAGUACUGAUUUUGUUUGUGAGUGAUGUU [zqqzzrmullin] | 0.0678
GCUGAUCGUUUUCCACGAUGCGGCUAAUAAAAGGAUAUUGGUAUAUCAAGAAGGUUUGUUCUGUGUAGUGAUGUUGCACCGUGUU [theeternabot_sameState_KL_FMN_A_28] | 0.0725

Sequence | apparent KD of K4 kissing-loop reporter [µM]
ACAGAUGCUAGUGAUACCAGACUAGCACUACGUAAUAUGUCAAGUGAUGUUUGACAACUAGUCCCUUGGCAGCGCGAUACGUCUG [Theo B SS t2] | 0.261
GGGUGGUAGGCGGCCGCCACUCUGAGCACCCACUGAGUGAUGUUCGUGGCGUAAGCCUGUUCUUAGAGGACCGGGUUUGUUGUUC [Exclusion Tryptophan B GF 17] | 0.144
AUUUUAGAGUGAUGUUCUAAUUGAUCAGAUACCAGACAAUUAUAAGUCCCUUGGCAGCUGUAGCCGAUAAAUUUAUUUAAUUUAA [JR_SSTheophyA_Sub024] | 0.225
UGACGCCUGUCGGCCGCCACUCACAGCAGCCAGUGAUGUUGGAUUGUAGCGGAGUGAUGUUUCGCGAGGACCGGGACUGCAGUUG [Same State Tryptophan B GF 13] | 0.25
AGGAUCCGUCGACAAAAGUCGACAUAAUCCAAGGAUAUGACGAAAGUCAGAAGGUGGGCAUAAGUCCAGUGAUGUUGGAGGAUCC [FmnA 18 #SwitchBubble #K4Late] | 0.445
UGUCAUUGGUCGGCCGCCACUAGGACCGGGUAUAACCCAGUGAUGUUGGUAAAUACGGCCGCCACUAGGACCGGGACCGAUGACU [TrypBS 14 #DoubleAptamer #SwitchBubble #K4Middle] | 0.173
UCUGGAGCAUAUGAUACCAGCAGUGAGAGACAGGAAGUAUAGUGAUGUUAUAUGAGAGAAUGCCCUUGGCAGCGUGUGCAGUGGC [SSTheophylB.P] | 0.0597
UGAUAGGAGUGAAGGAGCGGGAGUGAUGUUCCCAAAAUGGAAGCCUGUAAAAUACAGGCCUCCCAGGUAGGUCGCACUCCUAUCU [KL-XARG-B17] | 0.0947
AGACUACCUACACUGUCAAUAGACAGUGACUAGGAUAUGCUGAUAAGCAGAAGGAGUGAUGUUCCAAAUAAAAGGUGGUAGUCAU [FmnAX 18 #SwitchBubble #StaticStem #K4Early] | 0.111
CGAUCUUGGUCGGCCGCCACUACACCCACACCAAAUAGGAAAGUAGCGAGUGAUGUUUGUGACGUUAGGACCGGGACCACUGGUC [theeternabot_sameState_KL_Trp_B_25] | 0.392
AAGUGUUCUAGUGAUACCAGACAAUUUUAUUUUUUCUUUUUUGCUAAGUGAUGUUUAGCAGUCCCUUGGCAGCACUAUUUCACUA [JR_SSTheophyB_Sub018] | 0.128
GUCGAUGGUAACCGCUGACGUCGAUGAUGGGAGGAUAUGUUAGUUGACAGAAGGCCCAGUGAUGUUGGGCGUUUGUCUUGGUAUA [Ustecexe] | 0.136
UAAGAAUAAGUAGCAGUGAUGUUGCUACUACGAGGACCGGUACGGCCGCCACUCGAGCCGUACCAACUGCUACAAGGUACGAAUA [(H1)-(H2)-(Trp1)-(Trp2)-(T)'-(H)'-(T)''] | 0.257
AGUGUCAGUGAUGUUGAGAAGAUGGGUACUAAGGAUAUGCGGCGAUGCAGAAGGUAGAAUGAUUAGUUCGCAUGUUAUGAGGGAU [theeternabot_exclusion_KL_FMN_A_46] | 0.336
AGUGAAGUUAGUGAUGUGUGAGUUUGGGAAGGAGCGCCGAGGAAGGCAGGUAGGUCGCCCAGUGAUGUUGGUGUAAAGAUGAGAG [whbob_Ex_Arginine_A_2t122] | 0.231
AUAUACCAGUGAUGUUGGUAUACUAUCGAUACCAGUAGAUACCAAUACCCUUGGCAGCGAUAAGACCGUACUGUAGCCAGUACUU [Theo A SS t4] | 0.225
ACGUCCGGAUUAAUCGUGGGCAUGGUGGAUACCAGUUCUUUAAUGAACCCUUGGCAGCCACAUGAGUGAUGUUCAUGUGCGAUGA [KL-XTheo-A9 #analogue] | 0.14
AAGUGUCAUUAGACACACUGAUGUAUAAACUAGGAUAUGCUGAUAAGCAGAAGGAGUGAUGUUCCUUUCAUCAUCAGAAUUAAAU [KL-XFMN-A2] | 0.0945
UGACUGGACUGAAGGAGCGCUGAACUCCUAGUGAUGUUAGGAUAACGAGACAAAGUCUCGAAGCAGGUAGGUCGCAGUCUAGUCU | 0.108
AUGCUUUUAAUAACACUAUAUACAACUGAAGGAGCGACAAUAAAGUCAGGUAGGUCGCAGAAUAAAUGAGUGAUGUUCAUUUUUA [JR_ExcArginiA_Sub009] | 0.0639
UUAGUCUAGAGAGGAUAUCAGUGAUGUUGAUAUCAAGAUCAUAGAUAGAAUUCUAUCUAUGAUCAAUGAGAAGGCUCUAGACAUU [AK1 Exc FMN B] | 0.163
